No end group written: not given here.
How the values were obtained:
[1] = Comparison of joint retention time among radiolabeled peptides (QWBA, knee and IVD); assay type: in vivo; design: Peptide Signal Retention in Knee / Peptide Signal Retention in IVD: unit not given here; conditions: for joint retention: SEQ ID NO: 105 57-60 nmol, SEQ ID NO: 103 130 nmol, SEQ ID NO: 184 150 nmol
Experimental: Frozen carcasses were allowed to off gas hexane overnight at −20° and then embedded in chilled 2% carboxymethylcellulose (Sigma Aldrich) and sectioned sagittally at a thickness of 40 μm on an H/I Bright 8250 Cryostat (Hacker Instruments). Radioactive control guides were drilled into each block to verify even cutting depth along the length of the section. The radioactive guide consisted of ^14C-Glycine (American Radiolabeled Chemicals, “ARC”) at 0.5 uCi/ml in 0.5% BSA (Sigma Aldrich) in PBS. Sections were collected onto 4-inch wide tape (Scotch 821, ULINE) at 2-4 depths to sample approximately 30 tissues with particular focus on the knees and spine. Collected sections were freeze dried in the cryostat for 48-72 hours then mounted on sturdy paper and covered with a single protective layer of cellophane (Reynolds Food Service Film). Mounted sections were exposed to phosphor imager plates (Raytest) along with a radioactive standard Curve (1465-PL, ARC) for 7-days, scanned on a Raytest CR-35 at “25 μm sensitive” setting.
Quantification of the radioactivity detected in WBA samples was evaluated by measuring the pixel density/mm^2 (“SI”: Signal Intensity/Area−background) using AIDA Image Analyzer v 5.1 Whole Body Autoradiography Professional software (Raytest). Regions of interest (ROIs) were drawn manually around the entire visible tissue, comparing the sectioned sample to the autoradiogram. For quantification, all visible knee or IVD (intervertebral disc) tissues for one rodent across all collected sections were measured and averaged together to generate one knee or IVD value per animal. Typically were sampled 1-2 knee values (from femoral and tibial cartilage) per 1-2 sections per animal and 3-10 IVD per 1-2 sections per animal. To collect quantified values for other tissues, ROIs were drawn around blood in the heart ventricle, spinotrapezius muscle, the liver, or the kidney (including cortex and medulla) in all sections in which the tissue was observed and then averaged to yield one value per tissue per animal.
Data were presented as nmol of compound per gram of tissue. The commercial standard strips co-exposed with each WBA sample set were calibrated so that a known amount of radioactive counts per minute (CPM) per gram of tissue, determined by liquid scintillation counting (LSC), corresponded to the measured WBA SI at 11 standard strip concentration data points. The regression line of the log 10 transformed WBA signal intensity plotted against the log 10 transformed CPM/g gave a linear range of 1×10^5 to 7.5×10^7 WBA SI, corresponding to 6.3 nCi/g to 3.3 μCi/g. The log 10 concentration of radioactivity in each tissue (CPM/g) was interpolated from the standard curve, converted to linear values, and translated from CPM/g to uCi/g by interpolation against an LSC CPM to μCi standard curve. Uptake (nmol of compound/g of tissue) was determined by dividing the μCi/g tissue by the μCi/nmol specific activity of the peptide.
Peptide(SEQ ID NO: 105) was dosed at 57-60 nmol. Peptide(SEQ ID NO: 103) was dosed at 130 nmol. Peptide(SEQ ID NO: 184) was dosed at 150 nmol. […] It should be noted that detection of retention is based on an assay that detects radiolabeling of the N-terminus of each of the tested conjugates, thus decrease in signal over time may be due not only to peptide diffusion back out of the cartilage but also aminopeptidase-mediated removal of N-terminal amino acid, general peptide cleavage, or other mechanisms. Results as measured by QWBA methods described herein are shown in Tables 6 and 7 below and FIG. 11.

[2] = Biodistribution and pharmacokinetics of ^14C-labeled peptides in knee and IVD (QWBA); assay type: in vivo, athymic nude mice; conditions: for levels in knee and IVD compared with peptide(SEQ ID NO: 105): After 24 hours
Experimental: Synthetic peptides were radiolabeled by reductive methylation of the N-terminus with ^14C formaldehyde. 2 mice per time point were injected IV with 12.4 μCi of peptide (approximately 100 nmol or 18 mg/kg) and then euthanized at 0.08, 0.5, 1, 3, 8, 24, 48, 72, or 96 hours, followed by quantitative whole body autoradiography analysis.
To that end, the biodistribution pharmacokinetics of ^14C-labeled peptides ^14C-peptide(SEQ ID NO: 105), ^14C-peptide(SEQ ID NO: 103), and ^14C-peptide(SEQ ID NO: 184) to the knee (FIG. 19A and FIG. 19B) and intraverterbral discs (IVD, FIG. 19C and FIG. 19D) was assessed in mice (FIG. 19). Tissue levels were quantified by whole body autoradiography of peptides that had been radiolabeled by reductive methylation of the N-terminus. ^14C-peptide(SEQ ID NO: 105) and ^14C-peptide(SEQ ID NO: 103) both peaked in knee and IVD around 1-3 hours whereas ^14C-peptide(SEQ ID NO: 184) peaked later at 8 hours. […] All peptides still had observable signal at the last time point of 96 hours. […] As the peptide levels are based on the radiolabel attached to the N-terminus of the peptide, the decrease in signal with time may be due to aminopeptidase activity on the N-terminus of the peptides (which would not be relevant on PDC conjugates, where the drug linker is attached to the N-terminus), due to peptide diffusion back out of the cartilage, or due to general peptide backbone cleavage. For example, higher sustained levels of peptide in the cartilage may be desirable if drug cleavage has a slower pharmacokinetics, and if the peptide-drug conjugate is not saturating peptide binding sites in the cartilage when using repeat dosing. As another example, an earlier tmax in cartilage may be desirable to minimize premature cleavage of a conjugated drug in serum.

With “GSSERDCIRHLQRCRENRDCCSRRCSRRGTNPERRCR (not fully specified (N-terminus, bridges); cysteine pairing not given here) [peptide(SEQ ID NO: 103), cartilage-homing cystine-dense peptide; biodistribution with form ^14C-methylated on the N-terminus]” as the sequence, how does the “Peptide Signal Retention in IVD” value ([1]; 0.08 Hours) read?
The value was 59.15.

And the “Peptide Signal Retention in Knee” value ([1]; 0.08 Hours)?
The value was 79.20.

And the “Peptide Signal Retention in IVD” value ([1]; 0.5 Hours)?
The value was 76.62.

And the “Peptide Signal Retention in Knee” value ([1]; 0.5 Hours)?
Its value is 110.57.

What about the “Peptide Signal Retention in IVD” value ([1]; 1 Hours) of the same sequence?
Its value is 100.00.

What about the “Peptide Signal Retention in Knee” value ([1]; 1 Hours) of the same sequence?
The value was 100.00.

What about the “Peptide Signal Retention in IVD” value ([1]; 3 Hours) of the same sequence?
The value was 113.18.

What about the “Peptide Signal Retention in Knee” value ([1]; 3 Hours) of the same sequence?
Its value is 103.00.

What about the “Peptide Signal Retention in IVD” value ([1]; 8 Hours) of the same sequence?
The value was 107.52.

And the “Peptide Signal Retention in Knee” value ([1]; 8 Hours)?
Its value is 98.94.

And the “Peptide Signal Retention in IVD” value ([1]; 24 Hours)?
The value was 50.75.

What about the “Peptide Signal Retention in Knee” value ([1]; 24 Hours) of the same sequence?
Its value is 44.60.

What about the “Peptide Signal Retention in IVD” value ([1]; 48 Hours) of the same sequence?
Its value is 34.86.

What about the “Peptide Signal Retention in Knee” value ([1]; 48 Hours) of the same sequence?
Its value is 29.30.

What about the joint retention [1] of the same sequence?
Its joint retention is “Longer joint retention”.

What about the “levels in knee and IVD compared with peptide(SEQ ID NO: 105)” value [2] of the same sequence?
Its value is “substantially higher levels”.

With “GSGDCLPHLRRCRENNDCCSRRCRRRGANPERRCR (not fully specified (N-terminus, bridges); cysteine pairing not given here) [peptide(SEQ ID NO: 184), cartilage-homing cystine-dense peptide; biodistribution with form ^14C-methylated on the N-terminus]” as the sequence, how does the “Peptide Signal Retention in IVD” value ([1]; 0.08 Hours) read?
Its value is 53.02.

What about the “Peptide Signal Retention in Knee” value ([1]; 0.08 Hours) of the same sequence?
Its value is 96.94.

What about the “Peptide Signal Retention in IVD” value ([1]; 0.5 Hours) of the same sequence?
Its value is 49.70.

And the “Peptide Signal Retention in Knee” value ([1]; 0.5 Hours)?
The value was 69.85.

And the “Peptide Signal Retention in IVD” value ([1]; 1 Hours)?
The value was 100.00.

And the “Peptide Signal Retention in Knee” value ([1]; 1 Hours)?
The value was 100.00.

And the “Peptide Signal Retention in IVD” value ([1]; 3 Hours)?
The value was 238.11.

And the “Peptide Signal Retention in Knee” value ([1]; 3 Hours)?
Its value is 158.43.

What about the “Peptide Signal Retention in IVD” value ([1]; 8 Hours) of the same sequence?
The value was 119.97.

And the “Peptide Signal Retention in Knee” value ([1]; 8 Hours)?
The value was 111.32.

And the “Peptide Signal Retention in IVD” value ([1]; 24 Hours)?
The value was 64.00.

And the “Peptide Signal Retention in Knee” value ([1]; 24 Hours)?
The value was 57.81.

And the “Peptide Signal Retention in IVD” value ([1]; 48 Hours)?
Its value is 49.99.

And the “Peptide Signal Retention in Knee” value ([1]; 48 Hours)?
Its value is 50.44.

And the “Peptide Signal Retention in IVD” value ([1]; 72 Hours)?
Its value is 52.20.

And the “Peptide Signal Retention in Knee” value ([1]; 72 Hours)?
The value was 28.30.

What about the “Peptide Signal Retention in IVD” value ([1]; 96 Hours) of the same sequence?
Its value is 36.54.

What about the “Peptide Signal Retention in Knee” value ([1]; 96 Hours) of the same sequence?
The value was 11.84.

And the joint retention [1]?
The joint retention was “Longer joint retention”.

And the “levels in knee and IVD compared with peptide(SEQ ID NO: 105)” value [2]?
Its value is “substantially higher levels”.

And the “time of peak in knee and IVD” value ([2]; mice, approximately 100 nmol IV, QWBA)?
Its value is 8 h.
